Values of other authors as cited in patent publication US5770693A, “Calpain-inhibiting peptide analogs of the kininogen heavy chain” (Temple University-Of The Commonwealth System of Higher …, priority 1995, dated 1998).

Target: T1, papain (Carica papaya, UniProt P00784)
T1 sequence (P00784 134-345): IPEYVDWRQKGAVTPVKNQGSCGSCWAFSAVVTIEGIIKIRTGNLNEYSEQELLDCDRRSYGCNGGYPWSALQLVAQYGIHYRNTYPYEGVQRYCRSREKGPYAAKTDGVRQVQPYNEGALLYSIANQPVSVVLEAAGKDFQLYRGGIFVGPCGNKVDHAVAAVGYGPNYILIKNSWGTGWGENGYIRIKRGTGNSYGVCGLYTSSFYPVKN

Gln-Val-Val-Ala-Gly (QVVAG; printed: Gln-Val-Val-Ala-Gly) [pentapeptide contained in kininogen heavy chain domains D2 and D3]
activity in inhibiting papain (in words): weak activity
